According to US20190092819A1 (published 2019):

Target: Recombinant human DSG2 protein (desmoglein 2), soluble (human) (UniProt Q14126)
Test: method not named at this place; presumably the SPR of FIG. 7 (noDD forms)

Chain of Recombinant human DSG2 protein (desmoglein 2), soluble (human) (Q14126 50-609 limits assumed): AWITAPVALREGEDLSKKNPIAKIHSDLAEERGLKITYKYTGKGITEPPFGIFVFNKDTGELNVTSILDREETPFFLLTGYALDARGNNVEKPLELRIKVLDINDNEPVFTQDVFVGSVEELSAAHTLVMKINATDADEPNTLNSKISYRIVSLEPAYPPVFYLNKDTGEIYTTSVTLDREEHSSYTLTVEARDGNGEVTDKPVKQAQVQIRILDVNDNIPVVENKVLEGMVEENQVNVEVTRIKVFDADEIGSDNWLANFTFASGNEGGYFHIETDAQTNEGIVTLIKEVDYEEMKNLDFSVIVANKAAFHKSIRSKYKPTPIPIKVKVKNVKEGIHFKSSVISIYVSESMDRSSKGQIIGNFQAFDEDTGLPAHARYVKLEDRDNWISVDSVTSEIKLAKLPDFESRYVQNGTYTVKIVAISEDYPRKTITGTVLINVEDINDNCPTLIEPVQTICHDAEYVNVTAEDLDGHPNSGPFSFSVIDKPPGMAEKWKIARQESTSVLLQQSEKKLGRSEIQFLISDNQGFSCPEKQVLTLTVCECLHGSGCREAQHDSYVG

Substance: JO-4 (dimeric affinity-enhanced Ad3 fiber knob mutant Y250F) (ligand)
- Kd: 11.4 nM
